Measured values: patent US20180282719A1 (published 2018)

T1: recombinant soluble human IL-6 receptor (SR344) (human, UniProt P08887 20-344, biotinylated (sites not given) where immobilized via streptavidin or used in phage ELISA)
T1 construct: also called soluble IL-6 receptor; membrane-type IL-6 receptor (when biotinylated and immobilized on the chip)
T1 sequence (looked up): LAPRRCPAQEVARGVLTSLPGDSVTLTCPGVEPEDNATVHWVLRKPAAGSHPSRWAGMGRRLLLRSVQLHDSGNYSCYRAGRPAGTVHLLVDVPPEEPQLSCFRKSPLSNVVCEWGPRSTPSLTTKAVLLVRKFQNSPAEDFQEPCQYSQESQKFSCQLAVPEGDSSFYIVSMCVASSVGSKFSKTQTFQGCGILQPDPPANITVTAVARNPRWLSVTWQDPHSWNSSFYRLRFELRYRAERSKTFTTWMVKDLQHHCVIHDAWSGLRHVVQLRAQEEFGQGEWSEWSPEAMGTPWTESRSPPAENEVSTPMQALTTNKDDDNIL


How the values were obtained:
[1] = molecular target: T1, recombinant soluble human IL-6 receptor …; assay: SPR Biacore T100, biotinylated SR344 on streptavidin chip (model of membrane-type IL-6 receptor), antibody as analyte, bound at pH 7.4, dissociation at pH 7.4, 37 C
Procedure: Binding to the membrane-type IL-6 receptor was evaluated by evaluating binding to the IL-6 receptor immobilized on a sensor chip. SR344 was biotinylated in accordance with a method known among persons with ordinary skill in the art, and the biotinylated SR344 was immobilized on the sensor chip via streptavidin using the affinity between streptavidin and biotin. All the measurements were carried out at 37° C. The mobile phase buffer was 10 mM MES (pH 5.8), 150 mM NaCl and 0.05% TWEEN® 20 (polyoxyethelene sorbitan monolaurate).
The pH-dependently-binding clones were injected under the condition of pH 7.4 to allow them to bind to SR344, and then, the pH-dependent dissociation of each clone at the pH of the mobile phase, pH 5.8, was observed. The results are shown in FIG. 21 (results for Fv1-M71, Fv1-M73, Fv3-M71, and Fv3-M73 are shown in FIG. 21, while results for other clones are shown in FIGS. 17 and 19). Analyses were carried out in the same manner as in Example 10 and the pH dependencies of the dissociation rate constants of all of the eleven types of clones are shown in Table 12.

[2] = molecular target: T1, recombinant soluble human IL-6 receptor …; assay: SPR Biacore T100, biotinylated SR344 on streptavidin chip (model of membrane IL-6 receptor), antibody 0.5 ug/mL as analyte, 37 C
Procedure: (§1) The binding to membrane IL-6 receptor was evaluated by evaluating the binding to the IL-6 receptor immobilized onto a sensor chip. SR344 was biotinylated according to a method known to persons skilled in the art, and the biotinylated SR344 was immobilized on the sensor chip via streptavidin by utilizing the affinity between streptavidin and biotin. All the measurements were carried out at 37° C., and the mobile phase buffer contained 10 mM MES (pH 5.8), 150 mM NaCl and 0.05% TWEEN® 20 (polyoxyethelene sorbitan monolaurate). The pH-dependent binding clones were injected therein under the condition of pH 7.4 and allowed to bind to SR344 (injection sample buffer: 10 mM MES (pH 7.4), 150 mM NaCl, 0.05% TWEEN® 20 (polyoxyethelene sorbitan monolaurate)), and the pH-dependent dissociation of each clone at the mobile phase pH of 5.8 was observed (FIG. 10).
(§2) The dissociation rate […]) at pH 5.8 was calculated using Biacore T100™ Evaluation Software (GE Healthcare) by fitting only the dissociation phase at pH 5.8, where 0.5 μg/mL of the sample was bound in 10 mM MES (pH 7.4), 150 mM NaCl, and 0.05% TWEEN® 20 (polyoxyethelene sorbitan monolaurate), and dissociated in 10 mM MES (pH 5.8), 150 mM NaCl, and 0.05% TWEEN® 20 (polyoxyethelene sorbitan monolaurate). Similarly, the dissociation rate (kd(1/s)) at pH 7.4 was calculated using Biacore T100™ Evaluation Software (GE Healthcare) by fitting only the dissociation phase at pH 7.4, where 0.5 μg/mL of the sample was bound in 10 mM MES (pH 7.4), 150 mM NaCl, and 0.05% TWEEN® 20 (polyoxyethelene sorbitan monolaurate), and dissociated in 10 mM MES (pH 7.4), 150 mM NaCl, and 0.05% TWEEN® 20 (polyoxyethelene sorbitan monolaurate).

[3] = molecular target: T1, recombinant soluble human IL-6 receptor …; assay: SPR Biacore T100, biotinylated SR344 on streptavidin chip (model of membrane IL-6 receptor), antibody 0.5 ug/mL as analyte, bound at pH 7.4, dissociation at pH 5.8, 37 C
Procedure: as §1, §2

[4] = molecular target: T1, recombinant soluble human IL-6 receptor …; assay: SPR Biacore T100, biotinylated SR344 on streptavidin chip (model of membrane-type IL-6 receptor), antibody 0.25 ug/mL as analyte, bound at pH 7.4, dissociation at pH 7.4, 37 C
[5] = molecular target: T1, recombinant soluble human IL-6 receptor …; assay: SPR Biacore T100, antibody on protein A/G chip, SR344 analyte, pH 5.8, 37 C
Procedure: Kinetic analysis of antigen-antibody reactions at pH 7.4 and pH 5.8 was carried out using a Biacore T100™ surface plasmon resonance system (GE Healthcare) for the four types of antibodies prepared: WT-IgG1, H54/L28-IgG1, H170/L82-IgG1, and Fv4-IgG1 (buffer: 10 mM MES (pH 7.4 or pH 5.8), 150 mM NaCl, 0.05% Surfactant P20 (polyoxyethelene sorbitan monolaurate)). The antibodies were bound to a sensor chip on which recomb-protein A/G (Pierce) was immobilized by amine coupling, and SR344 adjusted to an appropriate concentration was injected therein as an analyte. The association with and dissociation from SR344 of each type of antibody were observed on a real-time basis. All the measurements were carried out at 37° C. Association rate constants kₐ (1/Ms) and dissociation rate constants kd (1/s) were calculated using Biacore T100™ Evaluation Software (GE Healthcare), and dissociation constants KD (M) were calculated based on those values (Table 17).

| koff [1] | kd ratio pH 5.8/pH 7.4 [2] | koff [3] | koff [4] | Kd [5] | koff [5] | kon [5] | Binder |
| --- | --- | --- | --- | --- | --- | --- | --- |
| 0.00026 s⁻¹ | 11 | 0.00378 s⁻¹ | 0.00026 s⁻¹ |  |  |  | H3pI/L73 (antibody, IgG1, V domains shown, tested as IgG1; also called H3pI/L73-IgG1; H3pl/L73) VH: QVQLQESGPGLVKPSETLSLTCAVSGHSISHDHAHSWVRQPPGEGLEWIGYISYSGITNYNPSLKGRVTISRDTSKNQFSLKLSSVTAADTAAYYCARSLARTTAMDYWGEGTLVTVSS VL: DIQMTQSPSSLSASVGDSVTITCQASQHISSHLNWYQQKPGKAPELLIYYGSHLHSGVPSRFSGSGSGTDFTFTISSLEAEDAATYYCGQGNRLPYTFGQGTKVEIE |
|  | 1.9 | 0.00144 s⁻¹ |  | 100 nM | 0.013 s⁻¹ | 120000 M⁻¹ s⁻¹ | H170/L82 (antibody, IgG1, V domains shown, expressed and purified as IgG (IgG1); also called H170/L82-IgG1) VH: QVQLQESGPGLVKPSETLSLTCAVSGHSISHHHAHSWVRQPPGEGLEWIGYISYSGITHYNPHLKGRVTISRDTSKNQFSLKLSSVTAADTAAYYCARVLARITAMDHWGEGTLVTVSS VL: DIQMTQSPSSLSASVGDSVTITCQASQDISSHLNWYQQKPGKAPELLIYYGSHLHSGVPSRFSGSGSGTDFTFTISSLEAEDAATYYCGQGNRLPYTFGQGTKVEIE |
| 0.00025 s⁻¹ | 1.5 | 0.000715 s⁻¹ | 0.00025 s⁻¹ | 3.1 nM | 0.0027 s⁻¹ | 890000 M⁻¹ s⁻¹ | humanized PM1 antibody (wild type, WT) (antibody, human IgG1, kappa, V domains shown, IgG1; also called WT-IgG1; wild type humanized anti-IL-6 receptor antibody) VH: QVQLQESGPGLVRPSQTLSLTCTVSGYSITSDHAWSWVRQPPGRGLEWIGYISYSGITTYNPSLKSRVTMLRDTSKNQFSLRLSSVTAADTAVYYCARSLARTTAMDYWGQGSLVTVSS VL: DIQMTQSPSSLSASVGDRVTITCRASQDISSYLNWYQQKPGKAPKLLIYYTSRLHSGVPSRFSGSGSGTDFTFTISSLQPEDIATYYCQQGNTLPYTFGQGTKVEIKR |
| 0.00047 s⁻¹ |  |  | 0.00047 s⁻¹ | 26 nM | 0.037 s⁻¹ | 1.4e+06 M⁻¹ s⁻¹ | Fv4-IgG1 (antibody, VH3-IgG1 / VL3-CK) heavy: not shown light: DIQMTQSPSSLSASVGDSVTITCQASTDISSHLNWYQQKPGKAPELLIYYGSHLLSGVPSRFSGSGSGTDFTFTISSLEAEDAATYYCGQGNRLPYTFGQGTKVEIERTVAAPSVFIFPPSDEQLKSGTASVVCLLNNFYPREAKVQWKVDNALQSGNSQESVTEQDSKDSTYSLSSTLTLSKADYEKHKVYACEVTHQGLSSPVTKSFNRGEC |
